Measured values: article PMC4938795

Molecular target: RD1-MART1^HIGH Y93Fα, yeast displayed (human)
Experiment: flow cytometry on cells

fold weaker binding than RD1-MART1^HIGH: 10 fold
Substance: MART1/HLA-A2 monomer (from UniProt P61769 21-119) (peptide-MHC)
